The results in this text go back to patent US20240263160A1 (BIOMARIN PHARMACEUTICAL, published 2024).

This experiment concerns the target IGF2 receptor (cation-independent mannose-6-phosphate receptor). Nature of the experiment: IGF2 receptor binding assay; average over the BMN001 lots used in the nonclinical studies; format and competitor not described.

B1: BMN001 therapeutic fusion protein (mature human Naglu fused through a rigid linker to a furin-resistant IGF-II peptide, amino acids 8-67 of mature human IGF-II … (enzyme)
chain: DEAREAAAVRALVARLLGPGPAADFSVSVERALAAKPGLDTYSLGGGGAARVRVRGSTGVAAAAGLHRYLRDFCGCHVAWSGSQLRLPRPLPAVPGELTEATPNRYRYYQNVCTQSYSFVWWDWARWEREIDWMALNGINLALAWSGQEAIWQRVYLALGLTQAEINEFFTGPAFLAWGRMGNLHTWDGPLPPSWHIKQLYLQHRVLDQMRSFGMTPVLPAFAGHVPEAVTRVFPQVNVTKMGSWGHFNCSYSCSFLLAPEDPIFPIIGSLFLRELIKEFGTDHIYGADTFNEMQPPSSEPSYLAAATTAVYEAMTAVDTEAVWLLQGWLFQHQPQFWGPAQIRAVLGAVPRGRLLVLDLFAESQPVYTRTASFQGQPFIWCMLHNFGGNHGLFGALEAVNGGPEAARLFPNSTMVGTGMAPEGISQNEVVYSLMAELGWRKDPVPDLAAWVTSFAARRYGVSHPDAGAAWRLLLRSVYNCSGEACRGHNRSPLVRRPSLQMNTSIWYNRSDVFEAWRLLLTSAPSLATSPAFRYDLLDLTRQAVQELVSLYYEEARSAYLSKELASLLRAGGVLAYELLPALDEVLASDSRFLLGSWLEQARAAAVSEAEADFYEQNSRYQLTLWGPEGNILDYANKQLAGLVANYYTPRWRLFLEALVDSVAQGIPFQQHQFDKNVFQLEQAFVLSKQRYPSQPRGDTVDLAKKIFLKYYPRWVAGSWGAPGGGSPAPAPTPAPAPTPAPAGGGPSGAPLCGGELVDTLQFVCGDRGFYFSRPASRVSARSRGIVEECCFRSCDLALLETYCATPAKSE
notes: also called Naglu/IGF-II fusion protein
Consider B1, for which the IC50 turned out to be 280 pM.

One may read the IC50 as the concentration at which inhibition is half-maximal. Read a low IC50 as greater potency in that assay.
